Consider two molecules from patent US9090686B2, “Antibodies for the treatment of HIV” (Pierre Fabre Medicament, priority 2009, dated 2015).

Holding throughout (assay type): cell-based
The test system of one assay is X4 HIV-1 LAI virus. The experiment in a line: GHOST cells expressing CD4 and CXCR4 infected with X4 HIV-1 LAI virus. The protocol: (§1) In order to determine the specificity of CXCR4 515H7 Mab, we evaluated the anti-HIV-1 activity of this Mab using GHOST cells expressing CD4 and CXCR4 or CCR5.
(§2) This assay is performed in 48 h using either the X4 HIV-1 LAI virus (with Ghost cells expressing CXCR4) or the R5 HIV-1 BaL virus (with Ghost cells expressing CCR5). 500 μl of Ghost cells were plated (2.5 10^5 cells/ml) for 24 h in Dulbecco culture medium supplemented with 10% FCS. Various dilutions of Mab 515H7 were incubated for 1 h at 37° C. and then diluted HIV-1 LAI virus ( 1/10) and HIV-1 BaL virus ( 1/7) were added to the cells for 48h. Cells were submitted to trypsin and washed with PBS 1×. 300 μL of 1.5% paraformaldehyde were added to the cell pellets for 2 h at +4° C. in the dark, in order to fix the cells and to inactivate viruses. GFP-positive cells were analyzed by flow cytometry and inhibition of HIV-1 infection was calculated.
(§3) The percent of inhibition of infected cells was defined as […] with control infected wells with no Mab.

For a further assay, the system named is R5 HIV-1 BaL virus. The experiment in a line: GHOST cells expressing CD4 and CCR5 infected with R5 HIV-1 BaL virus. The protocol:
as §1, §2, §3

The subject of assay [1] is HIV-1 primary isolate 89.6 (dual X4/R5 virus). The experiment in a line: Neutralization assay, multiple rounds of replication on primary PBMC, isolate 89.6. Conditions: 90% decrease of viral titer. The protocol: This assay that combines serial dilutions of c515H7 Mab or Maraviroc or combination of both with serial dilutions of virus, analyzes multiple rounds of infection on PBMC (peripheral blood mononuclear cells). Briefly, quadruplicate 25-μl aliquots of serial dilutions (twofold) of c515H7 Mabs or Maraviroc or combination of both were each incubated with 25 μl of serial dilutions of virus in prehydrated 96-well filter plates (1.25-μm pore size, Durapor Dv; Millipore, Molsheim, France). A control titration of the virus (25 μl of RPMI replacing the diluted c515H7 Mabs or Maraviroc) was performed on the same plate as the titrations in the presence of dilutions of the c515H7 Mabs or Maraviroc or combination of both. After 1 h at 37° C., 25 μl of PHA-stimulated PBMC at a concentration of 4×10^6 cells/ml (pool of PHA activated PBMC from five healthy donors) was added to achieve a 75-μl final culture volume of RPMI, 10% fetal calf serum (FCS), and 20 IU of interleukin-2 (IL-2) per ml (R&D System). After 24 h at 37° C., 100 μl of the same culture medium was added. Two washings (200 μl of RPMI each) were performed by filtration on day 4 to remove the c515H7 Mabs and Maraviroc, and 200 μl of fresh culture medium was added. On day 7, the presence of p24 in the culture supernatants was measured by ELISA and compared to that of the negative controls (cultures infected with dilutions of virus and maintained in the presence of 10^−6 M zidovudine [AZT]) to determine positive wells. […]
(§4) This assay that combines serial dilutions of hz515H7 Mab or Maraviroc or combination of both with serial dilutions of virus, analyzes multiple rounds of infection on PBMC (peripheral blood mononuclear cells). […] On day 7, the presence of p24 in the culture supernatants was measured by ELISA and compared to that of the negative controls (cultures infected with dilutions of virus and maintained in the presence of 10^−6 M zidovudine [AZT]) to determine positive wells. […]

Assay [2] deals with HIV-1 primary isolate UG93067 (dual X4/R5 virus). The experiment in a line: Neutralization assay, multiple rounds of replication on primary PBMC, isolate UG93067. As to the method: as §4, with “c515H7” for “hz515H7”, “cells). Briefly, quadruplicate 25-μl aliquots of serial dilutions (twofold) of c515H7 Mabs or Maraviroc or combination of both were each incubated with 25 μl of serial dilutions of virus in prehydrated 96-well filter plates (1.25-μm pore size, Durapor Dv; Millipore, Molsheim, France).” for “cells).”
as §4

B1: 515H7: murine anti-CXCR4 monoclonal antibody; light chain variable domain SEQ ID No. 7, heavy chain variable domain SEQ ID No. 8 (antibody, listed as Mus musculus, V domains shown)
VH: EVNLVESGGGLVQPGGSLRLSCATSGFTFTDNYMSWVRQPPGKALEWLGFIRNKANGYTTDYSASVRGRFTISRDNSQSILYLQMNALRAEDSATYYCARDVGSNYFDYWGQGTTLTVSS
VL: DIVMSQSPSSLAVSAGEKVTMSCKSSQSLFNSRTRKNYLAWYQQKPGQSPKLLIYWASARDSGVPARFTGSGSETYFTLTISRVQAEDLAVYYCMQSFNLRTFGGGTKLEIK
Regarding B1, the “inhibition of HIV-1 X4 Lai virus infection in CXCR4 expressing Ghost cells (in words)” value in the assay with X4 HIV-1 LAI virus was “able to inhibit”. Also, the “GHOST CXCR4/LAI virus % inhibition of infected cells 80” value in the assay on X4 HIV-1 LAI virus (IC for 80% inhibition) is 0.1 µg/mL. Besides, the “inhibition of HIV-1 R5 BaL virus infection in CCR5 expressing Ghost cells (in words)” value with R5 HIV-1 BaL virus was “totally inactive”.

B2: c515H7: chimeric antibody 515H7: murine variable domains fused to human Ckappa and IgG1/IgG2/IgG4 constant domains; isotype tested not stated (antibody, V domains shown)
VH: B1 VH
VL: B1 VL
What is called IC90 is the concentration needed for an effect of 90%. Turning to B2, in assay [1] (Maraviroc at 2 μg/ml added), the “IC90 of c515H7 with addition of Maraviroc” value was 0.2 µg/mL. Besides, the IC90 in assay [1] (single agent, multiple rounds, day 7 p24 ELISA) came to 2 µg/mL. In addition, in assay [2] (10 μg/ml of each, only the combination reached it), the “reduction of virus titer by combination of c515H7 and Maraviroc” value came to 90%. Also, the “inhibitory activity of the Mab compared with Maraviroc” value in assay [2] (virus UG93067, PBMC) is recorded as “similar”.
